Reference: article PMC5501724, “Structural Basis for Specific Interaction of TGFβ Signaling Regulators SARA/Endofin with HD-PTP” (Structure(London, England:1993), 2017)
Several values for one entry are separate records, joined by “and”; a condition that tells them apart may be missing. Identical values can stand only once.

Experiments:
[1] = biological target: T1, His6-HD-PTP_(Bro1) (1-361) (human, UniProt Q9H3S7 1-361); assay: SPR; ProteOn XPR36; His6-tagged proteins immobilised on a HTE chip (5000-8000 RU); synthetic peptides as analytes, five concentrations; 10 mM HEPES pH 7.4, 150 mM NaCl, 0.05% Tween 20; 25°C; equilibrium binding fit; settings: both partners purified
T1 construct: HD-PTP/PTPN23, Bro1 domain, residues 1-361; Immobilised by its His6 tag on the HTE chip; also called HD-PTP Bro1 domain; source: E. coli BL21 (DE3), purified (Nickel-beads, MonoQ, Superdex 200); not shown: His6, N-terminal, kept
T1 sequence (looked up): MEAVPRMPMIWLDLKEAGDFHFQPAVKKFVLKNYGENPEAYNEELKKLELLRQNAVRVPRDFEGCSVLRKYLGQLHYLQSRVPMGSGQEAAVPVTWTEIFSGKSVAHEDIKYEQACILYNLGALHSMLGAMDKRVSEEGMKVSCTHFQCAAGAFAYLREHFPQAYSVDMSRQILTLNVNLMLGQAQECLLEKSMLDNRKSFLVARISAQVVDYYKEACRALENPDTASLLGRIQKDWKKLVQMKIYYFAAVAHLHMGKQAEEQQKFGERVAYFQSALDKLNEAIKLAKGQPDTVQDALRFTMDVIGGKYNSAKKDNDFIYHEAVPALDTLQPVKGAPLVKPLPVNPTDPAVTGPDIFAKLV

[2] = biological target: T2, His6-HD-PTP_(Bro1-CC) (1-714), bacterially expressed (human, UniProt Q9H3S7 1-714); assay: as above; settings: both partners purified
T2 construct: HD-PTP/PTPN23, Bro1 and coiled-coil domains, residues 1-714; also called His-HD-PTP; source: E. coli BL21 (DE3), purified (Nickel-beads, MonoQ, Superdex 200); not shown: His6, N-terminal, kept
T2 sequence (looked up): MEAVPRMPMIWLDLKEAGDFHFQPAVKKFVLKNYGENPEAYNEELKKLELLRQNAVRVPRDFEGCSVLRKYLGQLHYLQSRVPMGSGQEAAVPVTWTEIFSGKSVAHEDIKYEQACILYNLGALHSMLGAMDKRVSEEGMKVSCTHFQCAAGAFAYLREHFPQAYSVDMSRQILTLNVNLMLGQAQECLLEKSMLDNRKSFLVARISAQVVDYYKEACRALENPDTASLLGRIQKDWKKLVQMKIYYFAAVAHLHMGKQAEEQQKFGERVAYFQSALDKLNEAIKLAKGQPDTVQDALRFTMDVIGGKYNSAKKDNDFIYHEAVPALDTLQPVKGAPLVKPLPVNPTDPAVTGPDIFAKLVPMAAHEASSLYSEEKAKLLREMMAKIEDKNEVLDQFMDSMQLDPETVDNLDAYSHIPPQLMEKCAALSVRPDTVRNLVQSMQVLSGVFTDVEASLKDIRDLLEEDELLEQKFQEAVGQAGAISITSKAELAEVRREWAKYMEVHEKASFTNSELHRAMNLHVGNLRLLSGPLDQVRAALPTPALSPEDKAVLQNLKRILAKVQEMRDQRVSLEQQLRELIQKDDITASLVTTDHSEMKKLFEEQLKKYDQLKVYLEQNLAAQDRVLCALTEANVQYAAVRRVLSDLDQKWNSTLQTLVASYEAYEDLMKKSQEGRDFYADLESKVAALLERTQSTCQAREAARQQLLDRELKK

[3] = biological target: T2, His6-HD-PTP_(Bro1-CC) (1-714), …; assay: co-IP; competition: GST-CHMP4B and His6-HD-PTP Bro1-CC as in the CHMP4B binding experiments, endofin 22-mer peptide (WT or L15P) added at 20 μM; immunoprecipitation with anti-His; settings: both partners purified
[4] = biological target: T3, His6-HD-PTP_(Bro1-CC) T145K, bacterially expressed (human, UniProt Q9H3S7 1-714, T145K); assay: co-IP; bacterially expressed GST-CHMP4B, full length or truncated (50 μg/ml), and His6-HD-PTP Bro1-CC (5 μg) in 200 μl IP2 buffer with 250 mM NaCl, 2 h at 4°C; immunoprecipitation with anti-His; settings: both partners purified
T3 construct: HD-PTP/PTPN23, residues 1-714 with T145K; source: E. coli, bacterially expressed, purified; not shown: His6, N-terminal, kept
T3 sequence (looked up): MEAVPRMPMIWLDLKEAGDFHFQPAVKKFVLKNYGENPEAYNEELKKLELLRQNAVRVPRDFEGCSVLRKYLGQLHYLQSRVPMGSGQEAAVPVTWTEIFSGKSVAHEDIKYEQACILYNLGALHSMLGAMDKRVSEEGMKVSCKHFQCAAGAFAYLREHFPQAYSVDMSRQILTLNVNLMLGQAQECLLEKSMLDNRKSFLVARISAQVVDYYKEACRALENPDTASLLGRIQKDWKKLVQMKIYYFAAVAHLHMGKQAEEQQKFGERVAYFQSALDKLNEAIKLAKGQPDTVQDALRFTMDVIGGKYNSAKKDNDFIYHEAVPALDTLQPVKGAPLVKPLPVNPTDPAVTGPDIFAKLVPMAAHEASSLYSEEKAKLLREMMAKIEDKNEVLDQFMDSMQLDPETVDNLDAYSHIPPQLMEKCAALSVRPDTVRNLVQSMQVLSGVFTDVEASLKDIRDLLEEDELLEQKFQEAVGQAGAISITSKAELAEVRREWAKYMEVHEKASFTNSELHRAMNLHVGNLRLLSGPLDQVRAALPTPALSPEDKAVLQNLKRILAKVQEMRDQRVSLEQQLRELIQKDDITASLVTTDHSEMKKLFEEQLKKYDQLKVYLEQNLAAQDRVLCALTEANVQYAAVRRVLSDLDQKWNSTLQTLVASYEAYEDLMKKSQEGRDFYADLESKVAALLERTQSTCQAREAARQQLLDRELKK

CHMP4A = biological target: T4, CHMP4A (Homo sapiens (Human), UniProt Q9BY43); assay: SPR equilibrium, peptide analyte
T4 chain: PKVDEDEEALKQLAEWVS

CHMP4C = biological target: T5, CHMP4C (Homo sapiens (Human), UniProt Q96CF2); assay: SPR equilibrium, peptide analyte
T5 chain: QRAEEEDDDIKQLAAWAT

CHMP4B = biological target: T6, CHMP4B (Homo sapiens (Human), UniProt Q9H444); assay: SPR equilibrium, peptide analyte
T6 chain: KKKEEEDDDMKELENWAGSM

Endofin = biological target: T7, Endofin (Homo sapiens (Human), UniProt Q7Z3T8); assay: SPR equilibrium, peptide analyte
T7 chain: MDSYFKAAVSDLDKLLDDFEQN

KKKEEEDDDMKELENWAGSM [CHMP4B C-terminal peptide]
Kd [1]: 85 µM

QRAEEEDDDIKQLAAWAT [CHMP4C C-terminal peptide]
Kd [1]: 89 µM and 88 µM

B1: shorter endofin peptide lacking 1-MDSYF-5 (peptide)
chain: KAAVSDLDKLLDDFEQN
modifications: C-terminal limit not given; taken as residue 22, the end of the 22-mer endofin peptide
Kd [2]: > 1500 µM | Kd [1]: > 1500 µM

B2: GST-CHMP4B (1-224), bacterially expressed (natural protein, human, UniProt Q9H444 1-224, looked up)
chain: MSVFGKLFGAGGGKAGKGGPTPQEAIQRLRDTEEMLSKKQEFLEKKIEQELTAAKKHGTKNKRAALQALKRKKRYEKQLAQIDGTLSTIEFQREALENANTNTEVLKNMGYAAKAMKAAHDNMDIDKVDELMQDIADQQELAEEISTAISKPVGFGEEFDEDELMAELEELEQEELDKNLLEISGPETVPLPNVPSIALPSKPAKKKEEEDDDMKELENWAGSM
notes: CHMP4B, residues 1-224, full length; In pGEX-4T1; also called CHMP4B-FL; full length GST-CHMP4B; source: E. coli C41 (DE3), purified (GSTrap HP)
binding result [3]: binds | binding result [4]: binds

B3: HDPTP_Bro1 (protein)
chain: MEAVPRMPMIWLDLKEAGDFHFQPAVKKFVLKNYGENPEAYNEELKKLELLRQNAVRVPRDFEGCSVLRKYLGQLHYLQSRVPMGSGQEAAVPVTWTEIFSGKSVAHEDIKYEQACILYNLGALHSMLGAMDKRVSEEGMKVSCTHFQCAAGAFAYLREHFPQAYSVDMSRQILTLNVNLMLGQAQECLLEKSMLDNRKSFLVARISAQVVDYYKEACRALENPDTASLLGRIQKDWKKLVQMKIYYFAAVAHLHMGKQAEEQQKFGERVAYFQSALDKLNEAIKLAKGQPDTVQDALRFTMDVIGGKYNSAKKDNDFIYHEAVPALDTLQPVKGAPLVKPLPVNPTDPAVTGPDIFAKLV
Kd (CHMP4A): 132 µM | Kd (CHMP4C): 88 µM | Kd (CHMP4B): 85 µM

B4: ALIX_Bro1 (protein)
chain: MATFISVQLKKTSEVDLAKPLVKFIQQTYPSGGEEQAQYCRAAEELSKLRRAAVGRPLDKHEGALETLLRYYDQICSIEPKFPFSENQICLTFTWKDAFDKGSLFGGSVKLALASLGYEKSCVLFNCAALASQIAAEQNLDNDEGLKIAAKHYQFASGAFLHIKETVLSALSREPTVDISPDTVGTLSLIMLAQAQEVFFLKATRDKMKDAIIAKLANQAADYFGDAFKQCQYKDTLPKEVFPVLAAKHCIMQANAEYHQSILAKQQKKFGEEIARLQHAAELIKTVASRYDEYVNVKDFSDKINRALAAAKKDNDFIYHDRVPDLKDLDPIGKATLVKSTPVNVPISQKFTDLFEKMV
Kd (Endofin): > 12.5 µM
